Assay results: patent US20240116985A1 (published 2024)
Starred links: 1 amine or outer side, 2 acyl side, 3 side chain; linkers in the order of their positions; H or OH if unused. Positions of bridges follow the written chain, without caps; N, C: chain ends. Non-standard residues stand in square brackets, D forms with d. Primed or numbered codes have the meaning given here. PyrS2″ = (S)-3-amino-1-((pent-4-en-1-yloxy)carbonyl)pyrrolidine-3-carboxylic acid (stapling residue), C=CCCCOC(=O)N1CC[C@@](N[*:1])(C(=O)[*:2])C1; B5(4) = 2,2-bis(4-pentenyl)glycine = 2-amino-2-(pent-4-en-1-yl)hept-6-enoic acid (stitching residue), C=CCCCC(CCCC=C)(N[*:1])C(=O)[*:2]; PyrS2 = (S)-3-amino-1-((pent-4-en-1-yloxy)carbonyl)pyrrolidine-3-carboxylic acid, C=CCCCOC(=O)N1CC[C@@](N[*:1])(C(=O)[*:2])C1; Phe(3-COOH) = N[C@@H](Cc1cccc(C(=O)O)c1)C(=O)O; 2F3MeF = Cc1cccc(C[C@H](N[*:1])C(=O)[*:2])c1F; Phe(2-CF3) = N[C@@H](Cc1ccccc1C(F)(F)F)C(=O)O; Bta = N[C@@H](Cc1csc2ccccc12)C(=O)O; αAllylPro = C=CC[C@@]1(C(=O)O)CCCN1; tBuAla = CC(C)(C)C[C@H](N)C(=O)O

T1: Bcat-Halo (UniProt P35222 1-781)
T1 sequence (looked up): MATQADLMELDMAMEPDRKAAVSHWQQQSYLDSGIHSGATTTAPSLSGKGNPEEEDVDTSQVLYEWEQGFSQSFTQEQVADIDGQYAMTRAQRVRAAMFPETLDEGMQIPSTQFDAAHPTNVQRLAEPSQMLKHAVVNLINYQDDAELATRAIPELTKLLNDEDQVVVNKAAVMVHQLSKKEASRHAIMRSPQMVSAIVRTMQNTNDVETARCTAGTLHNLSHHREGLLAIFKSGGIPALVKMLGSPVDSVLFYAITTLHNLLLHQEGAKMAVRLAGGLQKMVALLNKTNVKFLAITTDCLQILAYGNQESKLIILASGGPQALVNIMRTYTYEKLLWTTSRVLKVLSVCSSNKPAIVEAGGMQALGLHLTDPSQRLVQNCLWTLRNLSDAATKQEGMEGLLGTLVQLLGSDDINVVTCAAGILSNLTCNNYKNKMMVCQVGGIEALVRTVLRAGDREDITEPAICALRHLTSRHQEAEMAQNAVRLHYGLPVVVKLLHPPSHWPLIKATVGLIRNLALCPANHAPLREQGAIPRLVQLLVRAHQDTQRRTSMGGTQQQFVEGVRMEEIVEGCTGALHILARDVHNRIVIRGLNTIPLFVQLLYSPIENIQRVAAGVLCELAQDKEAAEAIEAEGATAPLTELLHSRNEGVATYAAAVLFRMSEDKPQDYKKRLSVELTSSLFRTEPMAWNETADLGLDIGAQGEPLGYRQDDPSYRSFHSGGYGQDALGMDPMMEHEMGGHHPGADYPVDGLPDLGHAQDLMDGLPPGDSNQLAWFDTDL

T2: beta-catenin in DLD1 TCF/LEF luciferase reporter cells (UniProt P35222 2-781)
T2 sequence (looked up): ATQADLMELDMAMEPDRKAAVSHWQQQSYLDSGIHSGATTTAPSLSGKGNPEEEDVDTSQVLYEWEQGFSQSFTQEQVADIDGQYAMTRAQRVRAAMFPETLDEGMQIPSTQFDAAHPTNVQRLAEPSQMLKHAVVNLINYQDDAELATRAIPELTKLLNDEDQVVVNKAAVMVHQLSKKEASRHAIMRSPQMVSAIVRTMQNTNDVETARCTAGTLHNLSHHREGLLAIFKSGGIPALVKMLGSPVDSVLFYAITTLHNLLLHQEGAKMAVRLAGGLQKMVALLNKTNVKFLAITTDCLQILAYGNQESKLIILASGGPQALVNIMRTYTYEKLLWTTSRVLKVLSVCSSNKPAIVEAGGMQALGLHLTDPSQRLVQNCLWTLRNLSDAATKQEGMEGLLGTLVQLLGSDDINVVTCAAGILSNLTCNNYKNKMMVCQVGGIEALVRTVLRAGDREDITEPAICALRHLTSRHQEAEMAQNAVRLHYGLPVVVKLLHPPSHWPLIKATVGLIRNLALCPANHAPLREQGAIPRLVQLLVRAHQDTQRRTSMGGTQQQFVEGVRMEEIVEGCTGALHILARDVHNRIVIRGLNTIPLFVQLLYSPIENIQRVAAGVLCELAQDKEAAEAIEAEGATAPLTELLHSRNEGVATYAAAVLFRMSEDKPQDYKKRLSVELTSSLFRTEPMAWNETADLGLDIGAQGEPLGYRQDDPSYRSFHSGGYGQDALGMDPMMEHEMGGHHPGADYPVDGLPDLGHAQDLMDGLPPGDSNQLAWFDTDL

T3: B-cat-Halo (beta-catenin HaloTag construct expressed in HEK293 cells) (UniProt P35222 1-781)
T3 sequence (looked up): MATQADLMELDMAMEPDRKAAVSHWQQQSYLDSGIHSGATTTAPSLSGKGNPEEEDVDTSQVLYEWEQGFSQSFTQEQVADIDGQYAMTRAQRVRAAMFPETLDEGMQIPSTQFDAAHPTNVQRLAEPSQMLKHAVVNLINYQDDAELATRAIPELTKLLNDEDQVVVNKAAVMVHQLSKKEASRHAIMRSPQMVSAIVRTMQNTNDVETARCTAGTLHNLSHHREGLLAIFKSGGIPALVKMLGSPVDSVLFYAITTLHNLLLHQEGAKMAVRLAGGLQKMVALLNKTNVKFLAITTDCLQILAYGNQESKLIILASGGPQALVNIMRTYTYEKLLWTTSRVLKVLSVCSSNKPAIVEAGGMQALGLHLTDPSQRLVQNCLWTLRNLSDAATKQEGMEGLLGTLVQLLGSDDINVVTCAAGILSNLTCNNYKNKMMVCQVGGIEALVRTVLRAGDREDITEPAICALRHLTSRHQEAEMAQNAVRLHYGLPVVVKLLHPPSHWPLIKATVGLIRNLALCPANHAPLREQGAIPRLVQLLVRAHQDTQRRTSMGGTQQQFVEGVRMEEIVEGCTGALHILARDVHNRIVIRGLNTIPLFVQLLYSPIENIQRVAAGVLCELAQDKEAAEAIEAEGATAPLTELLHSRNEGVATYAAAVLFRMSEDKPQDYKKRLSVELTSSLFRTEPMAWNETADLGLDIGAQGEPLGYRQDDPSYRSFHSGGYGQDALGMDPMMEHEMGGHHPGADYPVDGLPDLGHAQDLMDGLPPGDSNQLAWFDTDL

T4: beta-catenin in DLD1 TCF/LEF luciferase reporter cells (UniProt P35222 1-781)
T4 sequence (looked up): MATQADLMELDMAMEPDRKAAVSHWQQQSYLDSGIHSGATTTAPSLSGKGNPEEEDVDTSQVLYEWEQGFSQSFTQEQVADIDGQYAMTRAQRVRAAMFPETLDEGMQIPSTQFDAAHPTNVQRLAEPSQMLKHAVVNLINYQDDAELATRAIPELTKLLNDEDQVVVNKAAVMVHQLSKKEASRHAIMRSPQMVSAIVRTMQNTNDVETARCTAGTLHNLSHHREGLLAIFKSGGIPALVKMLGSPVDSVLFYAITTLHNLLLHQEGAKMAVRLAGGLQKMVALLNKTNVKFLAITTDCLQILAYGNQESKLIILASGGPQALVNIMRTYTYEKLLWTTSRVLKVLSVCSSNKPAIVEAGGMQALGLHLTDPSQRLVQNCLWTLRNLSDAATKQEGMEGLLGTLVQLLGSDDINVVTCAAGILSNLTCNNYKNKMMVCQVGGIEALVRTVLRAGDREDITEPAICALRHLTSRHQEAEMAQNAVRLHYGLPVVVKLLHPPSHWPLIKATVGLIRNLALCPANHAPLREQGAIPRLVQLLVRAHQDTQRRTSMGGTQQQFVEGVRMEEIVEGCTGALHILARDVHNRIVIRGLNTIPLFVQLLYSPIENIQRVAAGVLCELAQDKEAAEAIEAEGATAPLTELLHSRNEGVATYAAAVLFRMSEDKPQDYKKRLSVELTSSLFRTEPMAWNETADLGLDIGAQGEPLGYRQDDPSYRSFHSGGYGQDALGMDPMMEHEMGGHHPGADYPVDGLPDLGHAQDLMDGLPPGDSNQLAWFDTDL


Tests used:
Assay in all cases: cell-based or functional assay
[1] = target: T1, Bcat-Halo
[2] = target: T2, beta-catenin in DLD1 TCF/LEF luciferase …
[3] = target: T3, B-cat-Halo (beta-catenin HaloTag …)
[4] = target: T4, beta-catenin in DLD1 TCF/LEF luciferase …

| NanoBRET Abs IC50 [1] [µM] | DLD1 4% Abs IC50 [2] [µM] | NanoBRET Abs IC50 (uM); Bcat-Halo / TCF4-Luc in HEK293 cells [3] [µM] | DLD1 4% Abs IC50 (uM); TCF/LEF luciferase reporter assay [4] [µM] | Binder |
| --- | --- | --- | --- | --- |
| 1 | 1.7 |  |  | Ac-[αAllylPro]D[tBuAla][B5(4)]D[Phe(3-COOH)][(AcPpz)GlnR]AFL[PyrS2″][2F3MeF][Bta]A-NH2 (staple 1-4, 4-11) [I-2319] |
|  |  | 5.9 | 5.7 | Ac-[αAllylPro]D[tBuAla][B5(4)]DXQAFL[PyrS2][Phe(2-CF3)][Bta]A-NH2 (staple 1-4, 4-11; not fully specified (residue 6); printed as Ac-PL3-Asp-Npg-B5-Asp-[CH2CChCO2H]TriAzDap-Gln-Ala-Phe-Leu-PyrS2-2F3MeF-BztA-Ala-NH2) [I-2520] |
